Patent publication US20170319675A1 (IMMATICS BIOTECHNOLOGIES, published 2017)

Molecular target: T1, HLA-A*0201 (human)
T1 construct: also called peptide-receptive MHC molecules; MHC class I
Test: UV-ligand exchange; anti-b2m ELISA
Description: Candidate peptides for the vaccines according to the present invention were further tested for immunogenicity by in vitro priming assays. The individual peptide-MHC complexes required for these assays were produced by UV-ligand exchange, where a UV-sensitive peptide is cleaved upon UV-irradiation, and exchanged with the peptide of interest as analyzed. Only peptide candidates that can effectively bind and stabilize the peptide-receptive MHC molecules prevent dissociation of the MHC complexes. To determine the yield of the exchange reaction, an ELISA was performed based on the detection of the light chain (β2m) of stabilized MHC complexes.
Peptide-MHC monomers of the UV-exchange reaction were diluted 100 fold in blocking buffer. Samples were incubated for 1 h at 37° C., washed four times, incubated with 2 μg/ml HRP conjugated anti-β2m for 1 h at 37° C., washed again and detected with TMB solution that is stopped with […]. Absorption was measured at 450 nm.

Average exchange yield in %: 47%
Binder: RLLAAENFL [SAMSN1-001]
